Measurements taken from publication PMC3223260 (Biochimica et biophysica acta, 2011).

B1: IF3mt lacking the N- and C-terminal extensions (IF3mtΔNC) (domain or fragment, human, UniProt Q9H2K0 61-245, looked up)
chain: TQNEGKKTKKNKTAFSNVGRKISQRVIHLFDEKGNDLGNMHRANVIRLMDERDLRLVQRNTSTEPAEYQLMTGLQILQERQRLREMEKANPKTGPTLRKELILSSNIGQHDLDTKTKQIQQWIKKKHLVQITIKKGKNVDVSENEMEEIFHQILQTMPGIATFSSRPQAVQGGKALMCVLRAFSK
B2: MRPS32 (natural protein, UniProt P82927 33-142, looked up)
chain: KSTYSSLPDDYNCKVELALTSDARTIVCYHPSVDIPYEHTKPIPRPDPVHNNEETHDLVLKTRLEEKSEHLEQGPMIEQLSKMFFTTKHRWYPRGQYHRRRRKLNPPKDR
B3: MRPS36 (natural protein, UniProt P82908 1-103, looked up)
chain: MMGSKMASASRVVQVVKPHTPLIRFPDRRDNPKPNVSEVLRSAGLPSHTSSISQHSKGSKSPDWLMHQGPPDTAEMIKTLPQKYRRKLVSQEEIEFIQRGGPE
B4: C-domain with the linker region of IF3mt (IF3mt(C+L)) (domain or fragment, human, UniProt Q9H2K0 131-278, looked up)
chain: MTGLQILQERQRLREMEKANPKTGPTLRKELILSSNIGQHDLDTKTKQIQQWIKKKHLVQITIKKGKNVDVSENEMEEIFHQILQTMPGIATFSSRPQAVQGGKALMCVLRAFSKNEEKAYKETQETQERDTLNKDHGNDKESNVLHQ

What was measured:
Assay in all cases: cross-linking
PTCD3 = PTCD3 (bovine (endogenous in bovine …, UniProt Q2KI62 38-688))
MRPS18-2 = MRPS18-2 (bovine (endogenous in bovine …, UniProt P82918 36-258))
MRPS29 = MRPS29 (bovine (endogenous in bovine …, UniProt P82922 18-397))
[1] = molecular target: Full length mature human mitochondrial translational initiation factor 3 (IF3mt) (human, UniProt Q9H2K0 32-278)
[2] = molecular target: B1
[3] = molecular target: B4

PTCD3 (bovine, sequence (Q2KI62 38-688): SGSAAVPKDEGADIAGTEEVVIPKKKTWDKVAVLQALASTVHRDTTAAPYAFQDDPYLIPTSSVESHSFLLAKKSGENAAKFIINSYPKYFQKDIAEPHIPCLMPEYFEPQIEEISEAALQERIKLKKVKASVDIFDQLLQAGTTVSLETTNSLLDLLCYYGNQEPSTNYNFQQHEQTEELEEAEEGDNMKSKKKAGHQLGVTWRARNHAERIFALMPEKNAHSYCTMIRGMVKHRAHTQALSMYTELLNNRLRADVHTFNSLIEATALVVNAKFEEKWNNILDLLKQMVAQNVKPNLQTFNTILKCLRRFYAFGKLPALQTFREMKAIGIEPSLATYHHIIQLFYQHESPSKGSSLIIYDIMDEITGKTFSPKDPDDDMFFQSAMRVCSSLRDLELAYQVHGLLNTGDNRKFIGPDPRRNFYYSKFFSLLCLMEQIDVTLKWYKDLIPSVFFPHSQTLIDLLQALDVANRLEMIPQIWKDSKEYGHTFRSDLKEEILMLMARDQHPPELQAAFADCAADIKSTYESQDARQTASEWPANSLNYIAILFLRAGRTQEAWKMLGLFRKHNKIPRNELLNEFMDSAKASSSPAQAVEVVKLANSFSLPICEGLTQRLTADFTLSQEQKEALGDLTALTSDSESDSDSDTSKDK

binding result (PTCD3)	binding result (MRPS18-2)	binding result (MRPS29)	binding result [1]	binding result [2]	binding result [3]	Binder
binds	binds	binds				B1
			binds	binds	binds	B2
			binds		binds	B3
binds		binds				B4
